Assay results from patent US20210093714A1, “Combination and method for inhibiting the cancer cells” (NATIONAL TAIWAN UNIVERSITY, priority 2013, published 2021).

What was measured:
EGFR = target: T1, EGFR (Homo sapiens, UniProt P00533); assay: FACS of membranous association between CCN2 and EGFR; format: cell-based; details: CL1-5 and A549; rCCN2 100 ng/mL; FIG. 2B
T1 construct: endogenous in cells; host or cells: CL1-5 and A549 human lung adenocarcinoma cell lines
Experimental: After washing, cells were stained with an FITC-labelled goat anti-rabbit secondary antibody (Santa Cruz Biotechnology) for 30 min in the dark. Analysis was then conducted with an FACS Calibur cytometer (Collaborative Biomedical, BD Biosciences).
In this embodiment, the concentration thereof is about 100 ng/mL.

ERK = assay: Western blot of ERK phosphorylation; format: cell-based, human; details: CL1-5, A549 and CL1-0/siCCN2; with increasing time; FIG. 3A
Experimental: (§1) Proteins ([…]) were separated by SDS-PAGE and transferred to a polyvinylidene difluoride membrane (Immobilon-P membrane; Millipore) by electrotransfer. The blot was blocked in a solution of 5% skim milk and 0.1% Tween 20 in PBS. Thereafter, membrane-bound proteins were probed with the following primary antibodies: CCN2, DAPK, phosphorylated ERK, ERK-1, phosphorylated Akt, Akt, TrkA, phosphorylated-Src, Src, b-actin, a-tubulin (Santa Cruz Biotechnology), p-EGFR, and EGFR (Cell Signaling Technology, Danvers, MA, USA). The membrane was washed and then incubated with HRP-conjugated secondary antibodies for 30 min. Enhanced chemiluminescence reagents (Amersham Pharmacia Biotech, Piscataway, N.J., USA) were employed to depict the protein bands on membranes. The light was captured on Kodak X-Omat Blue autoradiography film (PerkinElmer Life Sciences, Boston, Mass., USA).
This embodiment focuses on the effect of CCN2 on the EGFR-induced signaling pathways. At first, the effect of exogenous CCN2(rCCN2) on the MAPK/AKT signaling pathways in the lung adenocarcinoma cell lines, CL1-5, A549 and CL1-0/siCCN2 was observed by western blot analysis, the results shown in FIG. 3A.

EGFR/c-Cbl complex = target: T2, EGFR/c-Cbl complex (Homo sapiens, UniProt P00533); assay: Immunoprecipitation/western blot of EGFR/c-Cbl complex formation; format: cell-based; details: CL1-5 with MG132; 0 to 60 minutes; FIG. 4D
T2 construct: expressed in transfected cells; host or cells: CL1-5 (EGFR endogenous; HA-c-Cbl transiently transfected)
Experimental: as §1
CCN2 transfectants were seeded overnight and incubated in serum-free media for 24 h. For immunoprecipitations, cells were lysed in an RIPA buffer (150 mM NaCl, 50 mM Tris-base, 5 mM EDTA, 1% NP-40, and 0.25% deoxycholate; pH 7.4). Protein concentrations were determined using the BCA protein assay kit (Pierce, Rockford, Ill., USA). […]

[1] = test system: lung adenocarcinoma cell line, CL1-5; assay: In vivo metastasis of i.v. injected CL1-5, celltracker probe; details: nude mice, i.v. CL1-5; CCN2 1 mg/kg per day; FIG. 5G
Text: Mice were anesthetized with isoflurane inhalation, and biofluorescence images were photographed with a CCD camera (IVIS; Xenogen Corporation, Caliper Life Sciences, Hopkinton, Mass., USA) at specific times. Imaging times ranged from 1 to 60 s, depending on the amount of fluorescence activity. Biofluorescence from the region of interest (ROI) was defined manually, and the data were expressed as photon flux (photons/s/cm^2/steradian). Background photon flux was defined using an ROI from a mouse that was not given an […]. injection of cancer cells. All biofluorescence data were collected and analyzed using IVIS. Celltracker dye was purchased from Molecular Probes, Invitrogen Corporation.
Cells were washed and resuspended in PBS. […] The mice were injected i.v. with cells so that we could measure the metastatic potential and perform biofluorescence imaging. The mice were killed after 8 weeks, and all of their organs were examined for metastasis formation. The lungs were removed and fixed in 10% formalin fixative. The number of lung-tumor colonies was counted under a dissecting microscope. […]

DAPK = assay: Western blot of DAPK expression; format: cell-based, human
Experimental: as §1
This embodiment focuses on the downstream signaling in CCN2-induced anoikis. At first, the effect of DAPK which can up-regulate CCN2 played on CCN2 induced anoikis and metastasis inhibition of lung adenocarcinoma cell lineswas observed by RT-PCR, dual luciferase reporter assay and western blot analysis, the results shown in FIGS. 6A to 6C. […] In addition, in the lung adenocarcinoma cell line, CL1-0/siCCN2, DAPK expression is suppressed, and DAPK expression also be suppressed with increasing dose (0 μg, 1μg, 3μg), (as shown on the top right in the FIG. 6C). Therefore, CCN2 induced DAPK expression in time- and dose-dependent manners.

wild-type EGFR = assay: Western blot of EGFR expression, H1299 wild-type EGFR; format: cell-based, human; details: H1299 lung adenocarcinoma cell lines (wild-type EGFR); 0 minutes to 4 hours; FIG. 7
Experimental: as §1
(§2) First, the effect of rCCN2 on the wild-type EGFR […] lung adenocarcinoma cell line, the mutated-type EGFR H1299 lung adenocarcinoma cell line, and the mutated-type EGFR H1975 lung adenocarcinoma cell line was observed by western blot analysis, the results shown in FIG. 7(Cell lysates of H1299 transfectants or H1975 cells were immunoblotted with anti-EGFR).

[2] = test system: mutated-type EGFR (L858R); assay: Western blot of EGFR expression, H1299 mutated-type EGFR; format: cell-based, human; details: H1299 (single mutation point, L858R); 0 minutes to 4 hours; FIG. 7
Experimental: as §1, §2

[3] = test system: mutated-type EGFR (L858R and T790M); assay: Western blot of EGFR expression, H1975; format: cell-based, human; details: 0 to 4 hours, FIG. 7
Experimental: as §1, §2

B1: Connective tissue growth factor (CCN2), wild-type full length (ligand, human, UniProt P29279 27-349, looked up)
chain: QNCSGPCRCPDEPAPRCPAGVSLVLDGCGCCRVCAKQLGELCTERDPCDPHKGLFCHFGSPANRKIGVCTAKDGAPCIFGGTVYRSGESFQSSCKYQCTCLDGAVGCMPLCSMDVRLPSPDCPFPRRVKLPGKCCEEWVCDEPKDQTVVGPALAAYRLEDTFGPDPTMIRANCLVQTTEWSACSKTCGMGISTRVTNDNASCRLEKQSRLCMVRPCEADLEENIKKGKKCIRTPKISKPIKFELSGCTSMKTYRAKFCGVCTDGRCCTPHRTTTLPVEFKCPDGEVMKKNMMFIKTCACHYNCPGDNDIFESLYYRKMYGDMA
notes: also called Recombinant CCN2; exogenous CCN2
detection of membranous CCN2 (EGFR): enhanced the detection of membranous CCN2 | phosphorylation of ERK (p-ERK1/2) (ERK): gradually reduce the phosphorylation of ERK | formation of EGFR/c-Cbl complex (EGFR/c-Cbl complex): gradually increase the formation of EGFR/c-Cbl complex | celltracker signals in lungs [1]: much weaker | number of metastatic lung nodules [1]: significantly reduced | DAPK expression (DAPK; CL1-5, A549 and CL1-0/siCCN2, increasing time 0 minutes to 12 hours, FIG. 6B): promote DAPK expression | DAPK expression (DAPK; CL1-5, increasing dose (0 μm, 1μg, 3 μg), FIG. 6C): promote DAPK expression | expression of EGFR (wild-type EGFR): inhibit the expression of EGFR more significantly | expression of EGFR [2]: inhibit the expression of EGFR more significantly | expression of EGFR [3]: inhibit the expression of EGFR more significantly
